Assay results published in patent US20240270821A1, “GIP/GLP1/GCG TRI-RECEPTOR AGONISTS AND USES THEREOF” (priority 2023, published 2024).

Experiments:
Test in all cases: cell-based or functional assay
[1] = target: human glucagon receptor (human) (UniProt P47871)
[2] = target: T1, human GIP receptor (human) (UniProt P48546)
T1 sequence (looked up): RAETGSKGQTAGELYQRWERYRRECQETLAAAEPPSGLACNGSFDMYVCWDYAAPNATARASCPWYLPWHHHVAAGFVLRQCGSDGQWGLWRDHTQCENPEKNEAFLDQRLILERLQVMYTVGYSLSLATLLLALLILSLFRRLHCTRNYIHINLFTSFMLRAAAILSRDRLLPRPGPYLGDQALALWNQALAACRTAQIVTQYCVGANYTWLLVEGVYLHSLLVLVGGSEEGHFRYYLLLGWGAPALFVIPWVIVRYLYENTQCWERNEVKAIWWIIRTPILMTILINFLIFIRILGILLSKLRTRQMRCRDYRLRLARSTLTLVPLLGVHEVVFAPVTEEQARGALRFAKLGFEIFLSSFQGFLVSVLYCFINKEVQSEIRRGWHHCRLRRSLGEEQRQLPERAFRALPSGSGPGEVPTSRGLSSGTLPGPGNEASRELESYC

[3] = target: human GLP1-R (SNAP-GLP-1R expressed in HEK293 cells) (human) (UniProt P43220)
hGLP-1R = hGLP-1R (Homo sapiens, UniProt P43220)
Sequence of hGLP-1R (P43220 24-463): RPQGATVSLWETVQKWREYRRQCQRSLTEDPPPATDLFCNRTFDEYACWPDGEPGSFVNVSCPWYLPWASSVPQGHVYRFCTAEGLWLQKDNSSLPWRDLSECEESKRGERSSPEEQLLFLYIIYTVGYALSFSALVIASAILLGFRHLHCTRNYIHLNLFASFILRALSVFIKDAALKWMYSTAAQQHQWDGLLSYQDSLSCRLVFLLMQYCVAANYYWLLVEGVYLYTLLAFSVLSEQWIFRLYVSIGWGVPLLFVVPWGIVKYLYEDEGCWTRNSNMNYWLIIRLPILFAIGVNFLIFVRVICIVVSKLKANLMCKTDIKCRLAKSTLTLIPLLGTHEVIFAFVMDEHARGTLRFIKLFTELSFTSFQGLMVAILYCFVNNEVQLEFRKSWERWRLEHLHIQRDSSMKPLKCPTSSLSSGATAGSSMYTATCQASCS

Sequence of human GLP1-R (SNAP-GLP-1R expressed in HEK293 cells) (human) (P43220 24-463): as above
Sequence of human glucagon receptor (human) (P47871 26-477): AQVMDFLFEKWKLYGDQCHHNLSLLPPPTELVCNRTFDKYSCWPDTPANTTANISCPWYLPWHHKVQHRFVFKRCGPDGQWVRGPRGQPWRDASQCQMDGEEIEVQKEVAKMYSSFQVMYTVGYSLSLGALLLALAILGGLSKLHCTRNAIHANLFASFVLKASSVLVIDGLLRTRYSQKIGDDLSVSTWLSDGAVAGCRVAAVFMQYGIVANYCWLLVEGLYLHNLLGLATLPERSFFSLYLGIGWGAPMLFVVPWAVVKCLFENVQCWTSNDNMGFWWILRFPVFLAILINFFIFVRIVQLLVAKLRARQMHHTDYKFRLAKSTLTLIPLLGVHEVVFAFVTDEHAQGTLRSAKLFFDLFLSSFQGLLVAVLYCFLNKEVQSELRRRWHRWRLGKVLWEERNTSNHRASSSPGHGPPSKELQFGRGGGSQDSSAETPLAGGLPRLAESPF

B1: Example 18 (peptide)
chain: YXQGTFTSDFSKXLDKKAQXAFIEYLLEGGPSSGAPPPGGS
modifications: Aib, αMeL; acylated Lys; C-terminal amide; synthetic construct; SITE 2: note = 2-Aminoisobutyric Acid; SITE 13: note = alpha-methyl-leucine; SITE 17: note = Lysine is chemically modified through conjugation of the epsilon-amino group of the Lysine side chain with (2-[2-(2-Amino-ethoxy)-ethoxy]-acetyl)-(gamma-Glu)-CO-(CH2) 18-CO2H; SITE 20: n
With B1 the Relative cAMP EC50 [1] was 2.7 nM, the cAMP Rel EC50 (in the presence of 1% HSA) [1] was 1210 nM and the Relative cAMP EC50 [2] was 0.337 nM. The cAMP Rel EC50 (in the presence of 1% HSA) [2] was 59.6 nM, the GLP1R Internalization EC50 [3] was 91.8 nM and the Internalization % TOP [3] was 74.1%. For the same binder, the Relative cAMP EC50 (hGLP-1R) was 2.31 nM and the cAMP Rel EC50 (in the presence of 1% HSA) (hGLP-1R) was 561 nM.

B2: Example 99 (peptide)
chain: YXQGTFTSDFSXXLDKKAQXAFIEYLLAGGPSSGAPPPEGE
modifications: synthetic construct; SITE 2: note = 2-Aminoisobutyric Acid; SITE 12: note = L-ornithine; SITE 13: note = alpha-methyl-leucine; SITE 17: note = Lysine is chemically modified through conjugation of the epsilon-amino group of the Lysine side chain with (2-[2-(2-Amino-ethoxy)-ethoxy]-acetyl)-(gamma-Glu)
Binder B2 has a Relative cAMP EC50 [1] of 6.09 nM, a cAMP Rel EC50, nM (in the presence of 1% HSA) [1] of 1130 nM and a Relative cAMP EC50 [2] of 0.174 nM. It also gave a cAMP Rel EC50, nM (in the presence of 1% HSA) [2] of 29.5 nM, a GLP1R Internalization EC50 [3] of 56.9 nM and an Internalization % TOP [3] of 46.1%. For the same binder, the Relative cAMP EC50 (hGLP-1R) was 3.54 nM and the cAMP Rel EC50, nM (in the presence of 1% HSA) (hGLP-1R) was 588 nM.

B3: Example 87 (peptide)
chain: YXQGTFTSDFSXXLDKKAQXAFIEYLLAGGPSSGAPPPSGT
modifications: synthetic construct; SITE 2: note = 2-Aminoisobutyric Acid; SITE 12: note = L-ornithine; SITE 13: note = alpha-methyl-leucine; SITE 17: note = Lysine is chemically modified through conjugation of the epsilon-amino group of the Lysine side chain with (2-[2-(2-Amino-ethoxy)-ethoxy]-acetyl)-(gamma-Glu)
B3 gave a Relative cAMP EC50 [1] of 8.51 nM, a cAMP Rel EC50, nM (in the presence of 1% HSA) [1] of 1110 nM and a Relative cAMP EC50 [2] of 0.128 nM. For the same binder, the cAMP Rel EC50, nM (in the presence of 1% HSA) [2] was 12.8 nM, the GLP1R Internalization EC50 [3] was 61.8 nM and the Internalization % TOP [3] was 45.4%. The Relative cAMP EC50 (hGLP-1R) was 2.75 nM and the cAMP Rel EC50, nM (in the presence of 1% HSA) (hGLP-1R) was 290 nM.

B4: Example 11 (peptide)
chain: YXQGTFTSDFSKXLDKKAQXAFIEYLLAGGPSSGAPPPSGE
modifications: Aib, αMeL; acylated Lys; C-terminal amide; synthetic construct; SITE 2: note = 2-Aminoisobutyric Acid; SITE 13: note = alpha-methyl-leucine; SITE 17: note = Lysine is chemically modified through conjugation of the epsilon-amino group of the Lysine side chain with (2-[2-(2-Amino-ethoxy)-ethoxy]-acetyl)-(gamma-Glu)-CO-(CH2) 18-CO2H; SITE 20: n
B4 showed a Relative cAMP EC50 [1] of 12.5 nM, a cAMP Rel EC50 (in the presence of 1% HSA) [1] of 1700 nM and a Relative cAMP EC50 [2] of 0.233 nM. It also gave a cAMP Rel EC50 (in the presence of 1% HSA) [2] of 40.8 nM, a GLP1R Internalization EC50 [3] of 75.1 nM and an Internalization % TOP [3] of 73.8%. For the same binder, the Relative cAMP EC50 (hGLP-1R) was 2.07 nM and the cAMP Rel EC50 (in the presence of 1% HSA) (hGLP-1R) was 337 nM.

B5: Example 16 (peptide)
chain: YXQGTFTSDFSKXLDKKAQXAFIEYLLAGGPSSGAPPPGGS
modifications: Aib, αMeL; acylated Lys; C-terminal amide; synthetic construct; SITE 2: note = 2-Aminoisobutyric Acid; SITE 13: note = alpha-methyl-leucine; SITE 17: note = Lysine is chemically modified through conjugation of the epsilon-amino group of the Lysine side chain with (2-[2-(2-Amino-ethoxy)-ethoxy]-acetyl)-(gamma-Glu)-CO-(CH2) 18-CO2H; SITE 20: n
For B5, the Relative cAMP EC50 [1] was 8.84 nM, the cAMP Rel EC50 (in the presence of 1% HSA) [1] was 1660 nM and the Relative cAMP EC50 [2] was 0.217 nM. It also gave a cAMP Rel EC50 (in the presence of 1% HSA) [2] of 35.9 nM, a GLP1R Internalization EC50 [3] of 37.8 nM and an Internalization % TOP [3] of 74.6%. It also gave a Relative cAMP EC50 (hGLP-1R) of 1.54 nM and a cAMP Rel EC50 (in the presence of 1% HSA) (hGLP-1R) of 281 nM.

B6: Example 12 (peptide)
chain: YXQGTFTSDFSKXLDKKAQXAFIEYLLAGGPSSGAPPPSGG
modifications: Aib, αMeL; acylated Lys; C-terminal amide; synthetic construct; SITE 2: note = 2-Aminoisobutyric Acid; SITE 13: note = alpha-methyl-leucine; SITE 17: note = Lysine is chemically modified through conjugation of the epsilon-amino group of the Lysine side chain with (2-[2-(2-Amino-ethoxy)-ethoxy]-acetyl)-(gamma-Glu)-CO-(CH2) 18-CO2H; SITE 20: n
For B6, the Relative cAMP EC50 [1] was 12.2 nM, the cAMP Rel EC50 (in the presence of 1% HSA) [1] was 1490 nM and the Relative cAMP EC50 [2] was 0.17 nM. It also gave a cAMP Rel EC50 (in the presence of 1% HSA) [2] of 30.2 nM, a GLP1R Internalization EC50 [3] of 48.5 nM and an Internalization % TOP [3] of 75.3%. It also gave a Relative cAMP EC50 (hGLP-1R) of 1.46 nM and a cAMP Rel EC50 (in the presence of 1% HSA) (hGLP-1R) of 216 nM.

B7: Example 8 (peptide)
chain: YXQGTFTSDFSKXLDKKAQXAFIEYLLAGGPSSGEPPPSGS
modifications: non-natural residues, acylation, C-terminal amide; synthetic construct; SITE 2: note = 2-Aminoisobutyric Acid; SITE 13: note = alpha-methyl-leucine; SITE 17: note = Lysine is chemically modified through conjugation of the epsilon-amino group of the Lysine side chain with (2-[2-(2-Amino-ethoxy)-ethoxy]-acetyl)-(gamma-Glu)-CO-(CH2) 18-CO2H; SITE 20: n
B7 was tested, and the Relative cAMP EC50 [1] was 6.65 nM, the cAMP Rel EC50 (in the presence of 1% HSA) [1] was 1560 nM and the Relative cAMP EC50 [2] was 0.231 nM. It also gave a cAMP Rel EC50 (in the presence of 1% HSA) [2] of 39.4 nM, a GLP1R Internalization EC50 [3] of 63.2 nM and an Internalization % TOP [3] of 74%. For the same binder, the Relative cAMP EC50 (hGLP-1R) was 2.11 nM and the cAMP Rel EC50 (in the presence of 1% HSA) (hGLP-1R) was 603 nM.

B8: Example 93 (peptide)
chain: YXQGTFTSDFSXXLDKKAQXAFIEYLLAGGPSSGAPPPEGS
modifications: synthetic construct; SITE 2: note = 2-Aminoisobutyric Acid; SITE 12: note = L-ornithine; SITE 13: note = alpha-methyl-leucine; SITE 17: note = Lysine is chemically modified through conjugation of the epsilon-amino group of the Lysine side chain with (2-[2-(2-Amino-ethoxy)-ethoxy]-acetyl)-(gamma-Glu)
Binder B8 has a Relative cAMP EC50 [1] of 7.16 nM, a cAMP Rel EC50, nM (in the presence of 1% HSA) [1] of 1390 nM and a Relative cAMP EC50 [2] of 0.162 nM. It also gave a cAMP Rel EC50, nM (in the presence of 1% HSA) [2] of 27.9 nM, a GLP1R Internalization EC50 [3] of 30.4 nM and an Internalization % TOP [3] of 50.8%. It also gave a Relative cAMP EC50 (hGLP-1R) of 2.63 nM and a cAMP Rel EC50, nM (in the presence of 1% HSA) (hGLP-1R) of 397 nM.

B9: Example 94 (peptide)
chain: YXQGTFTSDFSXXLDKKAQXAFIEYLLAGGPSSGEPPPSGS
modifications: synthetic construct; SITE 2: note = 2-Aminoisobutyric Acid; SITE 12: note = L-ornithine; SITE 13: note = alpha-methyl-leucine; SITE 17: note = Lysine is chemically modified through conjugation of the epsilon-amino group of the Lysine side chain with (2-[2-(2-Amino-ethoxy)-ethoxy]-acetyl)-(gamma-Glu)
For B9, the Relative cAMP EC50 [1] was 8.16 nM, the cAMP Rel EC50, nM (in the presence of 1% HSA) [1] was 1220 nM and the Relative cAMP EC50 [2] was 0.154 nM. For the same binder, the cAMP Rel EC50, nM (in the presence of 1% HSA) [2] was 21.4 nM, the GLP1R Internalization EC50 [3] was 37.1 nM and the Internalization % TOP [3] was 47.2%. It also gave a Relative cAMP EC50 (hGLP-1R) of 2.63 nM and a cAMP Rel EC50, nM (in the presence of 1% HSA) (hGLP-1R) of 480 nM.

B10: Example 23 (peptide)
chain: YXQGTFTSDFSKXLDKKAQXAFIEYLLAGGPSSGEPPPSGE
modifications: Aib, αMeL, acylated K, C-terminal amide; synthetic construct; SITE 2: note = 2-Aminoisobutyric Acid; SITE 13: note = alpha-methyl-leucine; SITE 17: note = Lysine is chemically modified through conjugation of the epsilon-amino group of the Lysine side chain with (2-[2-(2-Amino-ethoxy)-ethoxy]-acetyl)-(gamma-Glu)-CO-(CH2) 16-CO2H; SITE 20: n
With B10 the Relative cAMP EC50 [1] was 5.13 nM, the cAMP Rel EC50 (in the presence of 1% HSA) [1] was 573 nM and the Relative cAMP EC50 [2] was 0.178 nM. It also gave a cAMP Rel EC50 (in the presence of 1% HSA) [2] of 25.5 nM, a GLP1R Internalization EC50 [3] of 51.5 nM and an Internalization % TOP [3] of 67.2%. The Relative cAMP EC50 (hGLP-1R) was 2.98 nM and the cAMP Rel EC50 (in the presence of 1% HSA) (hGLP-1R) was 308 nM.

B11: Example 15 (peptide)
chain: YXQGTFTSDFSKXLDKKAQXAFIEYLLAGGPSSGAPPPGGE
modifications: acylated Lys, Aib, αMeL, C-terminal amide; synthetic construct; SITE 2: note = 2-Aminoisobutyric Acid; SITE 13: note = alpha-methyl-leucine; SITE 17: note = Lysine is chemically modified through conjugation of the epsilon-amino group of the Lysine side chain with (2-[2-(2-Amino-ethoxy)-ethoxy]-acetyl)-(gamma-Glu)-CO-(CH2) 18-CO2H; SITE 20: n
B11 showed a Relative cAMP EC50 [1] of 11.1 nM, a cAMP Rel EC50 (in the presence of 1% HSA) [1] of 1980 nM and a Relative cAMP EC50 [2] of 0.201 nM. For the same binder, the cAMP Rel EC50 (in the presence of 1% HSA) [2] was 36.3 nM, the GLP1R Internalization EC50 [3] was 79 nM and the Internalization % TOP [3] was 74.9%. For the same binder, the Relative cAMP EC50 (hGLP-1R) was 1.77 nM and the cAMP Rel EC50 (in the presence of 1% HSA) (hGLP-1R) was 276 nM.
